Biological target: prostate specific membrane antigen (PSMA) (UniProt Q04609)
Experiment: flow cytometry on LnCAP prostate cancer cells

Chain of UniProt Q04609 (Q04609 whole entry): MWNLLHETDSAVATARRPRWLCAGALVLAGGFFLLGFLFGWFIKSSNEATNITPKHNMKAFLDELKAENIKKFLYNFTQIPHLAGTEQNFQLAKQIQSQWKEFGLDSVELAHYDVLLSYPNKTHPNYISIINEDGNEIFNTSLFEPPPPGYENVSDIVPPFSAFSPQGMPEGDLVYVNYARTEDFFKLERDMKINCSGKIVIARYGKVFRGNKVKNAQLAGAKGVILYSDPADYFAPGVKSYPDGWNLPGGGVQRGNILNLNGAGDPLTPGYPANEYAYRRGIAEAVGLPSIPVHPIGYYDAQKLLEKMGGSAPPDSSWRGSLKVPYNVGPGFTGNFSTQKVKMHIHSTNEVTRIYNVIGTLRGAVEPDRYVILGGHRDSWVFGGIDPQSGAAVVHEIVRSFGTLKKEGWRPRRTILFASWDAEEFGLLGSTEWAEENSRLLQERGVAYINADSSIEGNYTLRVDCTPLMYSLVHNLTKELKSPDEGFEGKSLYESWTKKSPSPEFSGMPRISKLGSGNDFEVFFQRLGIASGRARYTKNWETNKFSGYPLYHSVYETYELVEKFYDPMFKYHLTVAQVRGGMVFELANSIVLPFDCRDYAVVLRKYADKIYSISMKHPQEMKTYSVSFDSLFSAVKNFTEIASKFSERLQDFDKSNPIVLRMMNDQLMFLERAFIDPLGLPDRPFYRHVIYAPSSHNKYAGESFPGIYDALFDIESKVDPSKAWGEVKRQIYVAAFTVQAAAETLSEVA

flow cytometry on LnCAP (% positive): 58%
Substance: antibody 7E11 (ATCC #FB 10494) recognizing prostate specific membrane antigen

From patent US6887474
